According to the supplement of paper PMC10201428:
± gives the standard deviation of the averaged measurements.

Tests used:
[1] = tested on: VchCAST RNA-guided transposition machinery (E. coli BL21(DE3) host, lacZ target); assay: relative integration efficiency (T-LR orientation) vs wild-type transposon end (log2 (normalized fold change)); transposon end mutated: left end; higher = more efficient transposition
Outline: (§1)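 Each barcoded pool, 1549 left-end or 1849 right-end transposon variants in a pUC57 mini-transposon donor, went into E. coli BL21(DE3) with a T7-driven effector plasmid (CRISPR array, tniQ-cas8-cas7-cas6, tnsA-tnsB-tnsC). Plates contained 0.1 mM IPTG and were held at 37°C for 18 h. Input plasmids and genomic integration junctions were PCR-amplified and read by Illumina sequencing, with two biological output replicates and four reference barcodes. Relative integration efficiency is the fold change of output over input barcode abundance, normalised to the reference barcodes and log-transformed.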

[2] = tested on: VchCAST RNA-guided transposition machinery (E. coli BL21(DE3) host, lacZ target); assay: relative integration efficiency (T-RL orientation) vs wild-type transposon end (log2 (normalized fold change)); transposon end mutated: left end; higher = more efficient transposition
Outline: as §1

Row | Sequence | relative integration efficiency (log2) [1] | relative integration efficiency (log2) [2]
1 | AATGTTGTTGATGCACCCATAAATTGATATTGCATAATTATTTATAATCAGCAACTTAACCACAAAACAACCATAAAATGATAATTAACAAAAGTTGGTATTCAACTATAAAATGTGAATCGAGTATTTCAGCAAAACTACTGCAGTAAGAA | -1.26 ± 0.57 | -3.11 ± 1.5
2 | AATGTTGTTGATGCACCCATAAATTGATATTGCATAATTATTTATAATCAGCAACTTAACCACAAAACAACCATAAAGTGATATTTAACAAAAGTTGGTATTCAACTATAAAATGTGAATCGAGTATTTCAGCAAAACTACTGCAGTAAGAA | -1.73 ± 0.93 | -3.26 ± 1
3 | AATGTTGTTGATGCACCCATAAATTGATATTGCATAATTATTTATAATCAGCAACTTAACCACAAAACAACCATAAGTTGATATTTTACAAAAGTTGGTATTCAACTATAAAATGTGAATCGAGTATTTCAGCAAAACTACTGCAGTAAGAA | -1.34 ± 1.4 | -3.46 ± 1.6
4 | AATGTTGTTGATGCACCCATAAATTGATATTGCATAATTATTTATAATCAGCAACTTAACCACAAAACAACCATATATTGATATCTCACAAAAGTTGGTATTCAACTATAAAATGTGAATCGAGTATTTCAGCAAAACTACTGCAGTAAGAA | -1.64 ± 1.3 | -3.48 ± 0.92
5 | AATGTTGTTGATGCACCCATAAATTGATATTGCATAATTATTTATAATCAGCAACTTAACCACAAAACACCCATAAATTGATAATTAACAAAAGTTGGTATTCAACTATAAAATGTGAATCGAGTATTTCAGCAAAACTACTGCAGTAAGAA | -1.55 ± 1.2 | -3.57 ± 1.4
6 | AATGTTGTTGATGCACCCATAAATTGATATTGCATAATTATTTATAATCAGCAACTTAACCACAAAACACCCATAAATTGATATTGCACAAAAGTTGGTATTCAACTATAAAATGTGAATCGAGTATTTCAGCAAAACTACTGCAGTAAGAA | -2.41 ± 2 | -4.32 ± 0.9
7 | AATGTTGTTGATGGTTGGTATTTCACTATAAATATAATTATTTATAATCAGCAACTTAACCACAAAAGTTGGTATATAACTATAGAGACAAAAGTTGGTATTCAACTATAAAATGTGAATCGAGTATTTCAGCAAAACTACTGCAGTAAGAA | < -10 | -8.52 ± 0.29
8 | AATGTTGTTGATGTAATTATCATTTTATGGTTGATAATTATTTATAATCAGCAACTTAACCACAAAACAACCATAAAATGATAATTAACAAAATAATTATCATTTTATGGTTGTGTGAATCGAGTATTTCAGCAAAACTACTGCAGTAAGAA | < -10 | -7.72 ± 0.59
9 | AATGTTGTTGATGTAATTATCATTTTATGGTTGATAATTATTTATAATCAGCAACTTAACCACAAAACAACCATAAAATGATAATTATTTTGTCAACCATAAAATGATAATTATGTGAATCGAGTATTTCAGCAAAACTACTGCAGTAAGAA | < -10 | -8.78 ± 0.35
10 | AATGTTGTTGATGTAATTATCATTTTATGGTTGATAATTATTTATAATCAGCAACTTAACCACAAAATAATTATCATTTTATGGTTGACAAAATAATTATCATTTTATGGTTGTGTGAATCGAGTATTTCAGCAAAACTACTGCAGTAAGAA | < -10 | < -10
11 | AATGTTGTTGATGTCAACCATAAAGTGATATTTAATAATTATTTATAATCAGCAACTTAACCACAAAACAACCATATATTGATATCTCACAAAACAACCATAAGTTGATATTTTTGTGAATCGAGTATTTCAGCAAAACTACTGCAGTAAGA | -0.718 ± 0.039 | -0.694 ± 0.2
12 | AATGTTGTTGATGTGCAACCATAAAGTGATATTTAATAATTATTTATAATCAGCAACTTAACCACAAAACAACCATATATTGATATCTCACAAAACAACCATAAGTTGATATTTTTGTGAATCGAGTATTTCAGCAAAACTACTGCAGTAAG | < -10 | -6.45 ± 0.8
13 | AATGTTGTTGATGTGTCAACCATAAAGTGATATTTAATAATTATTTATAATCAGCAACTTAACCACAAAACAACCATATATTGATATCTCACAAAACAACCATAAGTTGATATTTTTGTGAATCGAGTATTTCAGCAAAACTACTGCAGTAA | -2.19 ± 1.3 | -1.14 ± 0.25
14 | AATGTTGTTGATGTGTTCAACCATAAAGTGATATTTAATAATTATTTATAATCAGCAACTTAACCACAAAACAACCATATATTGATATCTCACAAAACAACCATAAGTTGATATTTTTGTGAATCGAGTATTTCAGCAAAACTACTGCAGTA | < -10 | -6.33 ± 0.89
15 | AATGTTGTTGATGTGTTGATGCAACCATAAAGTGATATTTAATAATTATTTATAATCAGCAACTTAACCACAAAACAACCATATATTGATATCTCACAAAACAACCATAAGTTGATATTTTTGTGAATCGAGTATTTCAGCAAAACTACTGC | -0.829 ± 0.034 | -0.31 ± 0.015
16 | AATGTTGTTGATGTGTTGCAACCATAAAGTGATATTTAATAATTATTTATAATCAGCAACTTAACCACAAAACAACCATATATTGATATCTCACAAAACAACCATAAGTTGATATTTTTGTGAATCGAGTATTTCAGCAAAACTACTGCAGT | < -10 | -6.86 ± 1.7
17 | AATGTTGTTGCAACCATAAAGTGATATTTAATAATTATTTATAATCAGCAACTTAACCACAAAACAACCATATATTGATATCTCACAAAACAACCATAAGTTGATATTTTTGTGAATCGAGTATTTCAGCAAAACTACTGCAGTAAGAAAGT | -1.44 ± 0.11 | -0.203 ± 0.26
18 | TTTTGTGTTGAAACAACCATAAAGTGATAACAAATAATTATTTATAATCAGCAACTTAACCACAAAACAACCATATCTTGATATCGCATAAAACAACCATAAGTTGATATTTTGGTGAAAAGGATATTCCAACCTTCATAGTTTAGTAAGAA | -1.23 ± 0.8 | -0.416 ± 0.29
19 | TTTTGTGTTGAAACAACCATAAAGTGATAACAACGAATCAATTAAAATCATAGGCTTAATCGAAAAACAACCATATATTGATATCTCATAAAACAACCATAAGTTGATATTTTGGTGAAAAGGATATTCCAACCTTCATAGTTTAGTAAGAA | 0.0938 ± 0.43 | 0.184 ± 0.29
20 | TTTTGTGTTGAAACAACCATAAAGTGATAACAACGAATCAATTAAAATCATAGGCTTAATCGAAAAACAACCATATCTTGATATCGCACAAAACAACCATAAGTTGATATTTTGGTGAAAAGGATATTCCAACCTTCATAGTTTAGTAAGAA | -0.749 ± 0.52 | -0.684 ± 0.39
21 | TTTTGTGTTGAAACAACCATAAAGTGATAACAACGAATCAATTAAAATCATAGGCTTAATCGAAAAACAACCATATCTTGATATCGCATAAAACAACCATAAGTTGATATTTTGGTGAAAAGGATATTCCAACCTTCATAGTTTAGTAAGAA | -0.599 ± 0.63 | -0.363 ± 0.32
22 | TTTTGTGTTGAAACAACCATAAAGTGATAACAACGAATCAATTAAAATCATAGGCTTAATCGAAAAACAACCATATCTTGATATCGCATAAAACAACCATAAGTTGATATTTTGGTGAAACGAGTATTTCAGCAAAACTACTGCAGTAAGAA | -1.04 ± 0.28 | -0.949 ± 0.35
23 | TTTTGTGTTGAAACAACCATAAAGTGATAACAACGAATCAATTAAAATCATAGGCTTAATCGAAAAACAACCATATCTTGATATCGCATAAAACAACCATAAGTTGATATTTTTGTGAATAGGATATTCCAACCTTCATAGTTTAGTAAGAA | -0.791 ± 0.29 | 0.192 ± 0.22
24 | TTTTGTGTTGAAACAACCATAAAGTGATATTTACGAATCAATTAAAATCATAGGCTTAATCGAAAAACAACCATATCTTGATATCGCATAAAACAACCATAAGTTGATATTTTGGTGAAAAGGATATTCCAACCTTCATAGTTTAGTAAGAA | -0.00585 ± 0.47 | 0.179 ± 0.12
25 | TTTTGTGTTGATGCAACCATAAAGTGATAACAACGAATCAATTAAAATCATAGGCTTAATCGAAAAACAACCATATCTTGATATCGCATAAAACAACCATAAGTTGATATTTTGGTGAAAAGGATATTCCAACCTTCATAGTTTAGTAAGAA | -0.426 ± 0.46 | -0.528 ± 0.32
